Experimental findings from patent publication US20210060072A1 (CRISPR THERAPEUTICS, published 2021) are described below.

The test concerns the target T1, CD70 on CD70-expressing cancer cell lines (A498, ACHN, SK-OV-3, Hs-766T, NCI-H1975, Calu-1, DU 145, MM.1S, … (human, UniProt P32970 1-193)).
T1 sequence (looked up): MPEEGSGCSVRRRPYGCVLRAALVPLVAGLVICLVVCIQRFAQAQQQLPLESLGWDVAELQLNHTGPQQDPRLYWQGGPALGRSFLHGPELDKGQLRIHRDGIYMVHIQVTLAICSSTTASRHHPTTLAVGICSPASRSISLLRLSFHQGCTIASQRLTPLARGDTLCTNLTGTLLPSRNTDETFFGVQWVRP
Nature of the test: cell-based or functional assay.

Some results are limits rather than exact numbers.

B1: anti-CD70 CAR (CD70B scFv with 41BB; CD8 transmembrane domain, 41BB co-stimulatory domain, CD3z signaling domain) (other)
chain: QVQLVQSGAEVKKPGASVKVSCKASGYTFTNYGMNWVRQAPGQGLKWMGWINTYTGEPTYADAFKGRVTMTRDTSISTAYMELSRLRSDDTAVYYCARDYGDYGMDYWGQGTTVTVSSGGGGSGGGGSGGGGSGDIVMTQSPDSLAVSLGERATINCRASKSVSTSGYSFMHWYQQKPGQPPKLLIYLASNLESGVPDRFSGSGSGTDFTLTISSLQAEDVAVYYCQHSREVPWTFGQGTKVEIKSAAAFVPVFLPAKPTTTPAPRPPTPAPTIASQPLSLRPEACRPAAGGAVHTRGLDFACDIYIWAPLAGTCGVLLLSLVITLYCNHRNRKRGRKKLLYIFKQPFMRPVQTTQEEDGCSCRFPEEEEGGCELRVKFSRSADAPAYQQGQNQLYNELNLGRREEYDVLDKRRGRDPEMGGKPRRKNPQEGLYNELQKDKMAEAYSEIGMKGERRRGKGHDGLYQGLSTATKDTYDALHMQALPPR
On to B1, for which the “cell killing, 24 hours of co-culture, A498, ACHN, SK-OV-3 and Hs-766T cells, 1:1 effector:target cell ratio (3xKO and 4xKO CD70 CAR+ T cells)” value is above 50%; the “cell killing, 24 hours of co-culture, A498, ACHN, SK-OV-3 and Hs-766T cells, 4:1 effector:target cell ratio (3xKO and 4xKO CD70 CAR+ T cells)” value is above 60%; the “cell killing, 24 hours of co-culture, NCI-H1975, Calu-1 and DU 145 cells, 4:1 effector:target cell ratio” value was above 30%; the “cell killing, 96 hours of co-culture, SKOV-3, Hs-766T and NIC-H1975 cells, 1:1 effector:target cell ratio” value was above 80%.
